This test deals with kinase domain of BRAF^WT (human, UniProt P15056 457-717). Briefly: other fluorescence titration.

Ends that are not written are not given here.

kinase domain of BRAF^WT, sequence (P15056 whole entry, looked up, the tested form may be a part): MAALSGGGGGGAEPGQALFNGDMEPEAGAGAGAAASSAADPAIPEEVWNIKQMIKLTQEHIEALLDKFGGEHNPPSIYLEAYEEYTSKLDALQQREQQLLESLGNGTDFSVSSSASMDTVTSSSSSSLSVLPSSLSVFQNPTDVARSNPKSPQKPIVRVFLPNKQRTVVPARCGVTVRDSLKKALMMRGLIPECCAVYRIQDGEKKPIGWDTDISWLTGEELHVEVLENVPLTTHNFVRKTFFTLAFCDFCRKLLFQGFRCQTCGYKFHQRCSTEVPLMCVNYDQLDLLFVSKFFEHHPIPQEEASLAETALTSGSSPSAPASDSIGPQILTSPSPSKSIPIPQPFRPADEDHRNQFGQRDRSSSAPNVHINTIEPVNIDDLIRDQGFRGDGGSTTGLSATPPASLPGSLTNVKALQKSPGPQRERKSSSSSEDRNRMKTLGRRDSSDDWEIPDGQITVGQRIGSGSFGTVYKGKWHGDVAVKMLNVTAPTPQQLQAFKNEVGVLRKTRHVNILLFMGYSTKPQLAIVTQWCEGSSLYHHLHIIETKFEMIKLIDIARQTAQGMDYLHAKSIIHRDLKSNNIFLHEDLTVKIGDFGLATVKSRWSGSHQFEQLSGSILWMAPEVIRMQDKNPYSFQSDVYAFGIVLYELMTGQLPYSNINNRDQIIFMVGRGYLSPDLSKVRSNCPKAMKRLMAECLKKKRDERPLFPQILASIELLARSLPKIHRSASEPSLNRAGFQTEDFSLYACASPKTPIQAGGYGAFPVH

Broadly, the Kd is the equilibrium constant for the complex coming apart. On to TRHVNILLFM (also: Cy3 label, end not given here) [Braftide-Cy3], for which the affinity, expressed as Kd, was 6.69 µM.

These data come from paper PMC6733264 (ACS chemical biology, 2019).
